This assay deals with T1, Aβ40 synthetic peptide (human, UniProt P05067 672-711).
T1 construct: β amyloid, the isoform ending at the 40th amino acid (Aβ40), cut product of the amyloid precursor protein; numbers count on: the Aβ peptide; Pre-incubated at 16.2 uM at 37 C for 2 h before mixing 1:1 (volume) with amylin and incubating 24 h at 37 C; also called β amyloid; human Aβ40; source: synthetic peptide; bought: Anaspec (AS-24235)
As to the kind of experiment: ELISA; amylin-Aβ sandwich ELISA on solutions of peptides co-incubated at 37 C for 24 h in PBS with 0.05% sodium azide (30 uM amylin and 16.2 uM Aβ mixed 1:1); capture by the polyclonal anti-amylin P2 antibody, detection by an HRP-conjugated anti-Aβ antibody. The conditions noted are these: both partners purified.

The text below walks through data of paper PMC10192925, “Rapid, scalable assay of amylin-β amyloid co-aggregation in brain tissue and blood” (The Journal of Biological Chemistry, 2023).

B1: human amylin synthetic peptide (peptide, UniProt P10997 34-70, looked up)
peptide: KCNTATCATQRLANFLVHSSNNFGAILSSTNVGSNTY
notes: Amylin (islet amyloid polypeptide), human, synthetic peptide; Pre-incubated at 30 uM in PBS with 0.05% sodium azide at 37 C for 5 h before mixing with Aβ40; also called islet amyloid polypeptide; source: synthetic peptide; bought: Anaspec (AS-60254-1)
Turning to B1, the binding result is “binds”.
